Data published in the DeepSol protein solubility set.

test: soluble on expression in E. coli; label from the status in PepcDB or PDB records

| Sequence | soluble on expression in E. coli |
| --- | --- |
| MSLNEWALETDAEFLVYNALRETGRLLISPDAITKQKARHVMRQVIARYPLGSKHDKLWLAAVEMLHYYAPEVLQQLGIDLDAAKRDLAARILPNRFECQGPAIIRSQDLSDAQAAQACDVLDKKEQDFHQVANTGLAPVADDYNTRVEVVVFANNSSYVNYSSFLFGNTTDNGGQYLEGNPADQNNQARFVAYRYANDADLSILNLEHEYTHYLDARFNQYGSFSDNLAHGHIVWWLEGFAEYMHYKQGYQAAVKLISQGKLSLSDVFATTYSNDTNRIYRWGYLAVRFMLEKHPQDVESLLALSRTGQFDQWAQSVKLLGERYNTEFSAWLDTLQRDNEGHHHHHH | not soluble |
| MGSDKIHHHHHHVPRVARIKSKSGIYHIIMRGINRQIVFEENEDCVKFIQTLQKIQAICKYRLYAYCLMGNHLHLLLMEGTEPLGNVMRRICSSYVLWYNKKYDRVGYLFQDRFKSEPVEDDGYFLTVLRYIFQNPVKAGIVTKIKDYKWTNYTDYIEGSNKTDTDFVLDFFNTNRERAIRSFIEYINKTNDDKCLDIPGKRQLTDEDAKKIIKDHCHIYNALDLYKFDVNKRNQYLKELKEGYGLSIRQIERLTGIGRGIIQRA | not soluble |
| GTENLYFQGMSDVIEGRLKELGFTLPVAAAPAANYVPFTISGNLLYVSGQLPMESGKIAVTGLVGRDVDVASAQRAAELCAVNILAQVKAALNGDLSKIRRVIKLNGFVASVPEFVEQHLVINGASNLIATVLGEPGRHARAAVGMASLPFNASVEIDAIVEIDV | soluble |
| SNAMKLTPNYYRDRVCLNVLAGSKDNARAIYQAAEGHVLVGVLSKNYPDVDSAVKDMREYAALIDNALSVGLGAGDPRQSVMVSQISQQVQPQHVNQVFTGVGASRALLGQHDTVVNGLISPTGKVGYVKISTGPLSSQQKDAIVPVTTAIAMLKDMGGSSVKFFPMNGLDSIDEYRFVAEACAATGFWLEPTGGIDLDNFEQIVQIALDAGVTKVIPHIYSSIIDSKTGNTRPEDVKTLLDIVKKIVQ | soluble |
| MQNDAGQTVELYVPRKCSSSNRIIGPKDHASVQIDFVDVDPETGRMIPGKSTRYAICGAIRRMGESDDAILRLAQKDGLVPRDDVKSN | not soluble |
| MQFSTTPTLEGQSIVEYCGVVTGEAILGANIFRDFFAGIRDIVGGRSGAYEKELRKAREIAFQELGEQAKALGADAVVGIDIDYETVGKDGSMLMVSVSGTAVKTRR | not soluble |
| MKNNKIYLLGACLLCAVTTFAQNVSLQPPPQQLIVQNKTIDLPAVYQLNGGEEANPHAVKVLKELLSGKQSSKKGMLISIGEKGDKSVRKYSRQIPDHKEGYYLSVNEKEIVLAGNDERGTYYALQTFAQLLKDGKLPEVEIKDYPSVRYRGVVEGFYGTPWSHQARLSQLKFYGKNKMNTYIYGPKDDPYHSAPNWRLPYPDKEAAQLQELVAVANENEVDFVWAIHPGQDIKWNKEDRDLLLAKFEKMYQLGVRSFAVFFDNISGEGTNPQKQAELLNYIDEKFAQVKPDINQLVMCPTEYNKSWSNPNGNYLTTLGDKLNPSIQIMWTGDRVISDITRDGISWINERIKRPAYIWWNFPVSDYVRDHLLLGPVYGNDTTIAKEMSGFVTNPMEHAESSKIAIYSVASYAWNPAKYDTWQTWKDAIRTILPSAAEELECFAMHNSDLGPNGHGYRREESMDIQPAAERFLKAFKEGKNYDKADFETLQYTFERMKESADILLMNTENKPLIVEITPWVHQFKLTAEMGEEVLKMVEGRNESYFLRKYNHVKALQQQMFYIDQTSNQNPYQPGVKTATRVIKPLIDRTFATVVKFFNQKFNAHLDATTDYMPHKMISNVEQIKNLPLQVKANRVLISPANEVVKWAAGNSVEIELDAIYPGENIQINFGKDAPCTWGRLEISTDGKEWKTVDLKQKESRLSAGLQKAPVKFVRFTNVSDEEQQVYLRQFVLTIEKK | soluble |
| MSIAIKDDDEFKTIFAEKKTQPVILFFTASWCGPCQMIKPRVEELAAEHKDRLSILKIDVDECDGVGEEYEINSMPTFLLIVDGIKKDQFSGANNTKFEEMVKAALQ | not soluble |
| MGSDKIHHHHHHMEKAVENFEDLSKEYINGYIERARKAQREFECYTQEQVDKIVKIVGKVVYYNAEYLAKLAVEETGMGVYEDKVAKNKSKAKVIYNNLKDKKSVGIIDIDRETGITKVAKPVGVVAAITPCTNPIVTPMSNAMFALKGRNAIIITPHHKAIGCSTKTVEMINEELEKIGAPENLIQILDQQSRENTRNLISSADVVIATGGMGMVKAAYSSGKPALGVGAGNVQCIIDRDVDIKEAVPKIIAGRIFDNGIICSGEQSVIVAEEMFDKIMDEFKNNKGFIVRDKVQKEAFRNAMFVNKSMNKDAVGQSVHTIAKIAGVEIPEDTKIIVIEADGPGEEDIIAKEKMCPVISAYKYKSFEEGVAIAKANLNVEGKGHSVSIHSNTVKNIEYAGENIEVSRFVINQCCATSAGGSFFNGLAPTNTLGCGSWGNNSISENLDYKHLINISRIAYYMPENEVPTDEELWG | not soluble |
| SNAMNHLPEKMRPYRDLLEKSAKEYVKLNVRKGKTGRYDSKIAGDPYFPKHETYPTDENGQPMKLLAQINFSHIPQLDGYPSSGILQFYISVHDDVYGLNFDDRCEQKNFRVIYFENIVENDDELVSDFSFIGTGECDFPILSEAAVEPVKSSEWVLPTDFQFEQYTGMETMEFFGQFGEDEEDIYNELAENGFGHKIGGYASFTQHDPREYAYKEHTIMLLQIDSDDDIDSMWGDVGIANFFITPEDLRKKDFSNVLYNWDCS | soluble |
| MAYTLHKMTKKLHKQKFFQFAAFIQKKFDSPLFKAIRKRSCHWSDISNHNDNYDLTVASYNVHKCIGVDKVFNPTRIVQVITELQVDILALQEADKRFGERIGLIDLQLLKAETGLIPVPLNTMSPHGHGWHGNALFLRKGHVCDTLQITLPGIEPRGAVIADLEMEVGPIRVIAAHFGLLRHSRNQQTKMLLSLLQKRPLMPTLLIGDFNEWRIGKGSSLNHFAPYFDSTVGTVPSFPSRFPLLALDRILAFPHQLVIRIENHHSPLARIASDHLPIKAYLDLSHAMATLKK | not soluble |
| MSTDEWRTERDPLVSQDRFLWEKVCCTIIPLHKKRYSSFAKEVVNVSKDAVKINNKKQYITQILPLSQANQQKLTEVKREKKAIAQTHKIHFFDRVVHRKIAKGHYSIEARLDLHGCMQEEAYFFLKKFLQSSQQNGLRYVLVITGKGRSPGSNGVLYQSVPHWLSTPAFRYYVHAFEQAARQHGGDGALYVRLRRFLPGKGYDVV | not soluble |
| MEGQRWLPLEANPEVTNQFLKQLGLHPNWQFVDVYGMDPELLSMVPRPVCAVLLLFPITEKYEVFRTEEEEKIKSQGQDVTSSVYFMKQTISNACGTIGLIHAIANNKDKMHFESGSTLKKFLEESVSMSPEERARYLENYDAIRVTHETSAHEGQTEAPSIDEKVDLHFIALVHVDGHLYELDGRKPFPINHGETSDETLLEDAIEVCKKFMERDPDELRFNAIALSAA | soluble |
| MGSDKIHHHHHHMAVRKAMKYSLGPVLWYWPKETLEEFYQQAATSSADVIYLGEAVCSKRRATKVGDWLEMAKSLAGSGKQIVLSTLALVQASSELGELKRYVENGEFLIEASDLGVVNMCAERKLPFVAGHALNCYNAVTLKILLKQGMMRWCMPVELSRDWLVNLLNQCDELGIRNQFEVEVLSYGHLPLAYSARCFTARSEDRPKDECETCCIKYPNGRNVLSQENQQVFVLNGIQTMSGYVYNLGNELASMQGLVDVVRLSPQGTDTFAMLDAFRANENGAAPLPLTANSDCNGYWRRLAGLELQA | not soluble |
| MHHHHHHSSGVDLGTENLYFQSMAWVIDKYGKNEVLRFTQNMMMPIIHYPNEVIVKVHAASVNPIDVNMRSGYGATALNMKRDPLHVKIKGEEFPLTLGRDVSGVVMECGLDVKYFKPGDEVWAAVPPWKQGTLSEFVVVSGNEVSHKPKSLTHTQAASLPYVALTAWSAINKVGGLNDKNCTGKRVLILGASGGVGTFAIQVMKAWDAHVTAVCSQDASELVRKLGADDVIDYKSGSVEEQLKSLKPFDFILDNVGGSTETWAPDFLKKWSGATYVTLVTPFLLNMDRLGIADGMLQTGVTVGSKALKHFWKGVHYRWAFFMASGPCLDDIAELVDAGKIRPVIEQTFPFSKVPEAFLKVERGHARGKTVINVV | soluble |
| MSLKRVLAAEYVRMSTEHQKYSLDNQSEYIREYSLRNNITIIHTYNDAGKSGLNISGRPGLKALLDDVINKKITISAILVYDVSRFGRFQDADEAGHYSHLLRKNGVKIIYCAEPFSEEHPEMFMLGLSFSRHGAASYSRNLSEKVFLGQVNLIKRGYHQGGVAGYGLRRLLIDEHEGHHHHHH | not soluble |
